The values that follow come from patent publication US20130216544A1 (GEMOAB MONOCLONALS, published 2013).

Residue numbers refer to the chain shown, from its start.

B1: anti-La monoclonal antibody 312B (antibody, IgG1, V domains shown)
VH: QVKLQESGAELMKPGSSVKFSCKAAGYTFTDYWIEWLKQRPGHGLEWIGEILPGSVSIKYNEKFKGKATFTADTSSNTAYMQLSSLTSEDSAVYYCARSRSIYDGYFYYWGQGTTLTVSS
VL: DIVMTQSTASLSASVGETVTITCRASENIYTYLAWYQQKQGKSPQLLVYNAKTLAEGVPSRFSGSGSGTQFSLRINSLQPEDFGSYYCQHHYGTPYTFGGGTKLEIK
B2: anti-La monoclonal antibody 22A (antibody, IgG1, V domains shown)
VH: QVKLEESGPELVKPGAPVKISCKTSGYTFTNYYIYWVKQRPGQGLEWIGYIYPGNGGTAYNQKFKDKATLTADNPSNTAYMQLSSLTSEDSAVYLCARRGALGYYFDYWGQGTTLTVSS
VL: QIVLTQSPAIMSASPGEKVTMTCSASSSVSYMYWYQQKSGTSPKRWIYDTSKLASGVPARFSGSGSGTSYSLTISSMEAEDAATYYCQQWSSNPQFGTGTKLEVKR
B3: anti-La monoclonal antibody 2F9 (antibody, IgG1, V domains shown)
VH: EVQLQESGPGILQPSQTLSLTCSFSGFSLSTSGMGVSWIRQPSGKGLEWLAHIYWDDDKGYNPSLKSRLTISKDTSRNQVFLKITSVDTADTATYYCARGDVEFDYWGQGTTLTVSS
VL: DIVLTQSTASLAVSLGQRATISCRASESVDSYGNSFMHWYQQKPGQPPKLLIYRASNLESGIPARFSGSGSRTDFTLTINPVEADDVATYYCQQSNEDPPTFGSGTKLEIK
B4: anti-La monoclonal antibody 27E (antibody, IgG2b, V domains shown)
VH: VQLQESGAELARPGASVKLSCKASGYSFRSYGINWVKQRTGQGLEWIGEIYPGSGTTFYNEKFRGKATLTADKSSSTAYMQLKSLTSEDSAVYFCARHGGYPFYFDYWGQGTTLTVSS
VL: DIVMTQSPAIMSASPGEKVTISCSASSSVSYMYWYQQKPGSSPKPWIYRTSNLASGVPARFSGSGSGTSYSLTISSMEAEDAATYYCQQYHSYPRTFGGGTKLEIKR
B5: anti-La monoclonal antibody 32A (antibody, IgG1, V domains shown)
VH: VQLQQSGAELARPGASVKLSCKASGYTFTTYGLTWVKQRTGQGLEWIGEIFPGSGTTFYNEKFNDKATLTADKSSSTAYMQLTSLTSEDSAVYFCARYSNYPYYFDYWGQGTTLTVSS
VL: B4 VL with D1Q, M4L, A9T, A59D
B6: anti-La monoclonal antibody 7B6 (antibody, V domains shown)
VH: VKLQESGGGLVQPGRPMKLSCVASGFTFSDFWMNWVRQSPEKGLEWVAQIRNKPNNYETYYSDSLKGRFTISRDDSKSSVYLQMNNLRPEDMGIYYCTLGNSWFAYWGQGTLVTVS
VL: DIVITQSPSSLAVSAGEKVTMSCRSSQSLLDSRTRKNYLAWYQQKPGQSPKLLIYWASTRESGVPDRFTGSGSGTDFTLTISNVQAEDLAVYYCKQSYNLPTFGGGTKLEI
notes: Used as hybridoma supernatant or mAb; also called mAk 7B6; anti-La 7B6
B7: anti-La monoclonal antibody 24BG7 (antibody, IgG1, V domains shown)
VH: QVQLQQSGAELARPGASVKLSCKASGYSLTNYGISWVKQRTGQGLEWIGEIYRGSGNSYYNEKFKGKASLTADKSSSTAYMQLSSLTSEDSAVYFCARGGLSFAYWGQGTLVTVSA
VL: QIVLTQSPAIMSASPGEKVTMTCSASSSVTYMHWYQQKSGTSPKRWIYDTSKLASGVPARFSGSGSGTSYSLTISTMEAEDAATYYCQQWISNPPTFGGGTKLEIKR
B8: anti-La monoclonal antibody 5B9 (antibody, IgG2a, V domains shown)
VH: VQLEESGAELVKPGASVKLSCKASGYAFTHYYIYWIKQRPGQGLEWIGGVNPSNGGTHFNEKFKSKATLTVDKSSSTAYMQLSSLTSEDSAVYYCTRSEYDYGLGFAYWGQGTLVTVSA
VL: IVLTQTTSSLAVSAGEKVTMSCKSSQSLLNSRTPKNYLAWYQQKPGQSPKLLIYWASTRKSGVPDRFTGSGSGTDFTLTISSVQAEDLAVYYCKQSYNLLTFGAGTKLELKR
notes: also called anti-La-5B9

For one experiment, the target named is T1, bacterially produced recombinant murine La protein (rmLa) (murine, UniProt P32067 1-415).
T1 construct: also called prokaryote-produced murine La protein
T1 sequence (looked up): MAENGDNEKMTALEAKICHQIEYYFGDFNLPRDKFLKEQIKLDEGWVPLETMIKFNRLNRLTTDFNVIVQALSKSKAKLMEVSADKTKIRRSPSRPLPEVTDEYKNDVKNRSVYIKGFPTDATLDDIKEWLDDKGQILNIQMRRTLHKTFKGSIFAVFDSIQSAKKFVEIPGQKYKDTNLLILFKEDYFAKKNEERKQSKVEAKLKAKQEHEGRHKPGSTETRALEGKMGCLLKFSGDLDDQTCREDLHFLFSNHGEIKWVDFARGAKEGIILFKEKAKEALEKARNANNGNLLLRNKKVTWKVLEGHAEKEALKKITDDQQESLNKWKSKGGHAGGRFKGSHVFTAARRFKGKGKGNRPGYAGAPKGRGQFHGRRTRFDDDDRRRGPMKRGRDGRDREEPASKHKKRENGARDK
In words: immunoblot, bacterially produced rmLa. Background: Immunoblotting shows a protein as a band on a membrane.
On to B1, for which the binding result is given as “binds”.

Take B2: the binding result was “no binding”.

Turning to B3, the binding result is given as “binds”.

For the molecule B4, the binding result is recorded as “binds”.

Consider B5, for which the binding result is “no binding”.

A further experiment has as its target T2, recombinant human La protein (rhLa), SEQ ID No. 1 with His tag (human, UniProt P05455 1-408).
T2 construct: Also used to decorate the surface of 3T3 and HEK 293T PSCA cells; also called rhLa protein; His 6hLa protein; not shown: His tag
T2 sequence: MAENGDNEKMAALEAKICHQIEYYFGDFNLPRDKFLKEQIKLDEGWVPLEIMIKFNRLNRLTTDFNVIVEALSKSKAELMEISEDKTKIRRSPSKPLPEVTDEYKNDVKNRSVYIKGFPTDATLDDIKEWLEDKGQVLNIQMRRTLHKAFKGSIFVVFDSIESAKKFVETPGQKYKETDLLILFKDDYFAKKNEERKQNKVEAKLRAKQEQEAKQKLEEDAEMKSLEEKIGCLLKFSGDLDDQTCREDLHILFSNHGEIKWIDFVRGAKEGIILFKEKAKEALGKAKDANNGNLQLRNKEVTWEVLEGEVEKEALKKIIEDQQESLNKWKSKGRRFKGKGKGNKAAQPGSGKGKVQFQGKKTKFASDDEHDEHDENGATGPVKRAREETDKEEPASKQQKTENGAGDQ
In words: method and form of the antigen not stated.
By Kd is commonly meant the equilibrium constant for the complex coming apart. Consider B6, for which the Kd is ~0.1 nM.

Take B1: the Kd was ~0.1 nM.

Consider B7, for which the Kd was ~0.1 nM.

For B2, the Kd was ~0.1 nM.

For the molecule B8, the Kd was ~0.1 nM.

With B4, the Kd is ~0.1 nM.

Consider B5, for which the equilibrium dissociation constant (Kd) was ~0.1 nM.

In another experiment the target is T3, eukaryotic murine La protein (mLa) (murine, UniProt P32067 1-415).
T3 construct: In total extracts or fixed cells; also called endogenous mLa protein; eukaryote-produced murine La protein
T3 sequence (looked up): T1 sequence (looked up)
In words: immunoblot, 3T3 total extract.
Regarding B1, the binding result is on record as “binds”.

As to B2, the binding result was “no binding”.

Consider B4, for which the binding result was “binds”.

Turning to B5, the binding result was “no binding”.
